# Biological target: PUUV SP-mEGFP-Gc∆CT (Gc devoid of the cytoplasmic tail, labelled with mEGFP) (Puumala orthohantavirus (PUUV), strain Sotkamo/V-2969/81)
# Experiment: Number and Brightness (N&B) fluorescence fluctuation microscopy
substance,measurement,value
"PUUV SP-mEGFP-Gc∆CT (Gc devoid of the cytoplasmic tail, labelled with mEGFP) (domain or fragment)",average multimerization,1.4
same,fraction of monomers (assuming a monomer-dimer equilibrium),75 mol%

# Reference: article PMC12298772
